Results published in CN114106176A (SHENZHEN PHENPENG BIOTHERAPY CO LTD, dated 2022).

Target: T1, 人CD22胞外段缀合His标签 (hCD22-His, ACRO, CD2-H52H8) (human, UniProt P20273 20-687)
T1 construct: extracellular domain; Bought recombinant protein; also called 人类hCD22-His; not shown: His tag
T1 sequence (looked up): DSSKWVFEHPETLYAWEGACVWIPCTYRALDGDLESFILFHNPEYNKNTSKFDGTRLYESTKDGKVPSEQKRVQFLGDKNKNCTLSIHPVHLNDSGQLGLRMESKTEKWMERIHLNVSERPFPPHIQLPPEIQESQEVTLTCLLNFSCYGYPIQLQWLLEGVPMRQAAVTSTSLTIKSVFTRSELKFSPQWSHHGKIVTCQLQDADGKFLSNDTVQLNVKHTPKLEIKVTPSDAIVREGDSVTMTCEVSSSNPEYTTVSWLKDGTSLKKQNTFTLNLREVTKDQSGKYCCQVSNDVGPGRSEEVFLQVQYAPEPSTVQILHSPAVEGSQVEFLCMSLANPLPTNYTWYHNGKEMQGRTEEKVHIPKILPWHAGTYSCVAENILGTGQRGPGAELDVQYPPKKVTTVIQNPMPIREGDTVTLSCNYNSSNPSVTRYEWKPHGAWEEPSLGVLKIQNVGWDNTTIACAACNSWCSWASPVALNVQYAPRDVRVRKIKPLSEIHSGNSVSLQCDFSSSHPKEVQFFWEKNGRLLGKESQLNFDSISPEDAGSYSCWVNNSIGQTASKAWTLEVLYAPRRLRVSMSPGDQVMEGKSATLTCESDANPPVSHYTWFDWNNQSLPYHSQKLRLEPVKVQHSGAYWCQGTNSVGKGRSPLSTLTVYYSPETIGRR
Experiment: ELISA, hCD22-His coated at 2 ug/ml, 3-fold antibody dilutions

- binding result: binds
B1: 5CD22-111-1-C3 (antibody, mouse IgG1, kappa, V domains shown)
VH: EVKLEESGGGLVQPGGFMKLSCVASGFTFSNYWMNWVRQSPERGLEWVAEIRLKSNDYATHYAESVKGRFTISRDDSKSNVYLQMNNLRAEDTGIYYCTRVYYYGRDYAMDYWGQGTSVTVSS
VL: QIVLTQSPAIMSASLGERVTMTCTASSSVSSIYLHWYQQKPGSSPKLWIYSTSNLASGVPGRFSGSGSGTSYSLTISSMEAEDAATYYCHQYHRSPRTFGGGTKLEIKR
